Test results taken from patent CN113214393A.

Target: IL-6R (UniProt P08887)
Assay: chemiluminescent immunoassay; ABEI-labelled human IL-6 on IL-6R-coated magnetic beads, diluent only (no antibody); same control value printed in all four columns

Sequence of UniProt P08887 (P08887 20-358 limits assumed): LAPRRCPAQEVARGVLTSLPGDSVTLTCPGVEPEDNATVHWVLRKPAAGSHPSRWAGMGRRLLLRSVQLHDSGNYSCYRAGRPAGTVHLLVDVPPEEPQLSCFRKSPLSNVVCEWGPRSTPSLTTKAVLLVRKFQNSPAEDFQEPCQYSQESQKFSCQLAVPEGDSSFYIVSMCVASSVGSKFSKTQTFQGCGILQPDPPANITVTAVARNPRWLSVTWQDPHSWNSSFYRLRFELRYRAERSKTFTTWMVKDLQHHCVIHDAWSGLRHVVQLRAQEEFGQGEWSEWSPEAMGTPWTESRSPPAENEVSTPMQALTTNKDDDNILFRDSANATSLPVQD

RLU (相对光强度): 606000 RLU
Substance: 人IL-6抗原 (from UniProt P05231 30-212) (ligand)
